# From the supplement of paper PMC9112550, “Optimization of the antimicrobial peptide Bac7 by deep mutational scanning” (BMC Biology, 2022)
# Tested on: Escherichia coli TOP10
# Experiment: shrunken log2 fold change of peptide-encoding DNA abundance (4.5 h post-induction vs induction); higher = less antimicrobial activity (less host growth inhibition)
# Details: time post-induction: 4.5 h; library: site-saturation at positions 5, 18, 19, 20
# 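Note: peptides expressed intracellularly from a pBAD plasmid library in pooled LB shake-flask culture, induced with 0.3% L-arabinose, DNA abundance read by NGS, three biological replicates, DESeq2 with apeglm shrinkage.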
row,Sequence,shrunken log2 fold change
1,RRIRCRPPRLPRPRPRPSEDPRP,-0.112
2,RRIRCRPPRLPRPRPRPSEMPRP,-0.286
3,RRIRCRPPRLPRPRPRPSENPRP,-0.154
4,RRIRCRPPRLPRPRPRPSFMPRP,-0.688
5,RRIRCRPPRLPRPRPRPSGEPRP,0.299
6,RRIRCRPPRLPRPRPRPSGKPRP,-0.327
7,RRIRCRPPRLPRPRPRPSGPPRP,0.124
8,RRIRCRPPRLPRPRPRPSGYPRP,-0.724
9,RRIRCRPPRLPRPRPRPSISPRP,-0.136
10,RRIRCRPPRLPRPRPRPSLAPRP,0.133
11,RRIRCRPPRLPRPRPRPSMDPRP,-0.182
12,RRIRCRPPRLPRPRPRPSNHPRP,-0.718
13,RRIRCRPPRLPRPRPRPSQDPRP,0.0757
14,RRIRCRPPRLPRPRPRPSRFPRP,-0.0991
15,RRIRCRPPRLPRPRPRPSRWPRP,0.599
16,RRIRCRPPRLPRPRPRPSSCPRP,-0.211
17,RRIRCRPPRLPRPRPRPSSFPRP,-0.0694
18,RRIRCRPPRLPRPRPRPSSSPRP,-0.366
19,RRIRCRPPRLPRPRPRPSTEPRP,-0.174
20,RRIRCRPPRLPRPRPRPSTMPRP,-0.509
21,RRIRCRPPRLPRPRPRPSVFPRP,-0.614
22,RRIRCRPPRLPRPRPRPSYPPRP,-0.703
23,RRIRCRPPRLPRPRPRPTEDPRP,-0.0639
24,RRIRCRPPRLPRPRPRPTGFPRP,-0.135
25,RRIRCRPPRLPRPRPRPTGMPRP,-0.013

row,Sequence,shrunken log2 fold change
1,RRIRCRPPRLPRPRPRPTKIPRP,0.0473
2,RRIRCRPPRLPRPRPRPTMHPRP,-0.112
3,RRIRCRPPRLPRPRPRPTMMPRP,-0.0339
4,RRIRCRPPRLPRPRPRPTPDPRP,0.857
5,RRIRCRPPRLPRPRPRPTPKPRP,0.877
6,RRIRCRPPRLPRPRPRPTQRPRP,0.514
7,RRIRCRPPRLPRPRPRPTSLPRP,-0.167
8,RRIRCRPPRLPRPRPRPTVPPRP,0.247
9,RRIRCRPPRLPRPRPRPTVQPRP,0.0608
10,RRIRCRPPRLPRPRPRPTWIPRP,0.24
11,RRIRCRPPRLPRPRPRPTWWPRP,0.294
12,RRIRCRPPRLPRPRPRPTYNPRP,-0.722
13,RRIRCRPPRLPRPRPRPVCMPRP,-0.119
14,RRIRCRPPRLPRPRPRPVDSPRP,0.176
15,RRIRCRPPRLPRPRPRPVFAPRP,-0.224
16,RRIRCRPPRLPRPRPRPVFQPRP,-0.0498
17,RRIRCRPPRLPRPRPRPVFTPRP,-0.211
18,RRIRCRPPRLPRPRPRPVFVPRP,-0.136
19,RRIRCRPPRLPRPRPRPVGGPRP,0.273
20,RRIRCRPPRLPRPRPRPVHGPRP,0.267
21,RRIRCRPPRLPRPRPRPVHWPRP,-0.21
22,RRIRCRPPRLPRPRPRPVKEPRP,-0.0734
23,RRIRCRPPRLPRPRPRPVMDPRP,-0.0102
24,RRIRCRPPRLPRPRPRPVPFPRP,-0.132
25,RRIRCRPPRLPRPRPRPVPSPRP,-0.119

row,Sequence,shrunken log2 fold change
1,RRIRCRPPRLPRPRPRPVQRPRP,0.123
2,RRIRCRPPRLPRPRPRPVRLPRP,0.499
3,RRIRCRPPRLPRPRPRPVRWPRP,0.952
4,RRIRCRPPRLPRPRPRPVSAPRP,0.15
5,RRIRCRPPRLPRPRPRPVSPPRP,0.198
6,RRIRCRPPRLPRPRPRPVSYPRP,0.0707
7,RRIRCRPPRLPRPRPRPVTMPRP,-0.49
8,RRIRCRPPRLPRPRPRPVVVPRP,-0.203
9,RRIRCRPPRLPRPRPRPWCEPRP,-0.349
10,RRIRCRPPRLPRPRPRPWCMPRP,-0.585
11,RRIRCRPPRLPRPRPRPWEEPRP,0.0492
12,RRIRCRPPRLPRPRPRPWFKPRP,-0.582
13,RRIRCRPPRLPRPRPRPWFLPRP,-0.479
14,RRIRCRPPRLPRPRPRPWFQPRP,-0.2
15,RRIRCRPPRLPRPRPRPWGIPRP,-0.59
16,RRIRCRPPRLPRPRPRPWGRPRP,-0.118
17,RRIRCRPPRLPRPRPRPWHHPRP,-1.14
18,RRIRCRPPRLPRPRPRPWHKPRP,-0.256
19,RRIRCRPPRLPRPRPRPWHYPRP,-0.51
20,RRIRCRPPRLPRPRPRPWIWPRP,-0.128
21,RRIRCRPPRLPRPRPRPWKKPRP,-0.0238
22,RRIRCRPPRLPRPRPRPWKTPRP,-0.152
23,RRIRCRPPRLPRPRPRPWKYPRP,-0.0802
24,RRIRCRPPRLPRPRPRPWLGPRP,0.188
25,RRIRCRPPRLPRPRPRPWLLPRP,-0.381

row,Sequence,shrunken log2 fold change
1,RRIRCRPPRLPRPRPRPWMGPRP,0.439
2,RRIRCRPPRLPRPRPRPWPSPRP,-0.0603
3,RRIRCRPPRLPRPRPRPWRDPRP,-0.0798
4,RRIRCRPPRLPRPRPRPWRWPRP,0.568
5,RRIRCRPPRLPRPRPRPWTTPRP,-0.138
6,RRIRCRPPRLPRPRPRPWVRPRP,-0.0386
7,RRIRCRPPRLPRPRPRPWYTPRP,-0.739
8,RRIRCRPPRLPRPRPRPYFLPRP,-0.823
9,RRIRCRPPRLPRPRPRPYFTPRP,-0.774
10,RRIRCRPPRLPRPRPRPYGYPRP,-0.0837
11,RRIRCRPPRLPRPRPRPYHSPRP,-0.73
12,RRIRCRPPRLPRPRPRPYICPRP,-0.419
13,RRIRCRPPRLPRPRPRPYLCPRP,-0.455
14,RRIRCRPPRLPRPRPRPYLEPRP,-0.208
15,RRIRCRPPRLPRPRPRPYLIPRP,-0.233
16,RRIRCRPPRLPRPRPRPYLLPRP,-0.559
17,RRIRCRPPRLPRPRPRPYMCPRP,-0.233
18,RRIRCRPPRLPRPRPRPYNAPRP,-1.23
19,RRIRCRPPRLPRPRPRPYNEPRP,-0.51
20,RRIRCRPPRLPRPRPRPYQVPRP,-0.829
21,RRIRCRPPRLPRPRPRPYQWPRP,-0.714
22,RRIRCRPPRLPRPRPRPYRKPRP,-0.49
23,RRIRCRPPRLPRPRPRPYRLPRP,-0.0743
24,RRIRCRPPRLPRPRPRPYSMPRP,-0.905
25,RRIRCRPPRLPRPRPRPYTDPRP,-0.431

row,Sequence,shrunken log2 fold change
1,RRIRCRPPRLPRPRPRPYTHPRP,-1.19
2,RRIRCRPPRLPRPRPRPYTPPRP,-1.23
3,RRIRCRPPRLPRPRPRPYVLPRP,-0.903
4,RRIRCRPPRLPRPRPRPYVYPRP,-0.834
5,RRIRCRPPRLPRPRPRPYWMPRP,-1.07
6,RRIRCRPPRLPRPRPRPYWSPRP,-1.2
7,RRIRDRPPRLPRPRPRPAAGPRP,0.793
8,RRIRDRPPRLPRPRPRPACIPRP,0.194
9,RRIRDRPPRLPRPRPRPACSPRP,0.386
10,RRIRDRPPRLPRPRPRPACTPRP,0.642
11,RRIRDRPPRLPRPRPRPADVPRP,0.384
12,RRIRDRPPRLPRPRPRPAETPRP,0.0806
13,RRIRDRPPRLPRPRPRPAHMPRP,-0.125
14,RRIRDRPPRLPRPRPRPAHQPRP,0.516
15,RRIRDRPPRLPRPRPRPAIGPRP,0.325
16,RRIRDRPPRLPRPRPRPAINPRP,-0.117
17,RRIRDRPPRLPRPRPRPAIPPRP,-0.538
18,RRIRDRPPRLPRPRPRPAIQPRP,0.389
19,RRIRDRPPRLPRPRPRPAKKPRP,-0.00565
20,RRIRDRPPRLPRPRPRPALIPRP,0.145
21,RRIRDRPPRLPRPRPRPALLPRP,1.02
22,RRIRDRPPRLPRPRPRPAMDPRP,0.335
23,RRIRDRPPRLPRPRPRPAMNPRP,0.139
24,RRIRDRPPRLPRPRPRPANEPRP,0.0557
25,RRIRDRPPRLPRPRPRPAPPPRP,0.71

row,Sequence,shrunken log2 fold change
1,RRIRDRPPRLPRPRPRPAQWPRP,0.395
2,RRIRDRPPRLPRPRPRPARLPRP,0.382
3,RRIRDRPPRLPRPRPRPATQPRP,0.52
4,RRIRDRPPRLPRPRPRPAWIPRP,0.0906
5,RRIRDRPPRLPRPRPRPAWTPRP,-0.0791
6,RRIRDRPPRLPRPRPRPAWVPRP,0.103
7,RRIRDRPPRLPRPRPRPAWYPRP,-0.0946
8,RRIRDRPPRLPRPRPRPAYDPRP,0.0094
9,RRIRDRPPRLPRPRPRPAYYPRP,-0.947
10,RRIRDRPPRLPRPRPRPCACPRP,0.112
11,RRIRDRPPRLPRPRPRPCAFPRP,0.822
12,RRIRDRPPRLPRPRPRPCAGPRP,0.0969
13,RRIRDRPPRLPRPRPRPCCCPRP,0.714
14,RRIRDRPPRLPRPRPRPCCHPRP,0.0218
15,RRIRDRPPRLPRPRPRPCCPPRP,-0.449
16,RRIRDRPPRLPRPRPRPCDAPRP,-0.0239
17,RRIRDRPPRLPRPRPRPCDNPRP,-0.283
18,RRIRDRPPRLPRPRPRPCDPPRP,0.041
19,RRIRDRPPRLPRPRPRPCDVPRP,-0.0231
20,RRIRDRPPRLPRPRPRPCECPRP,-0.201
21,RRIRDRPPRLPRPRPRPCFRPRP,-0.157
22,RRIRDRPPRLPRPRPRPCHWPRP,-0.00151
23,RRIRDRPPRLPRPRPRPCHYPRP,-0.639
24,RRIRDRPPRLPRPRPRPCIIPRP,-0.0943
25,RRIRDRPPRLPRPRPRPCLAPRP,0.291
